The source of these data is patent US20130022611A1, “METHODS AND COMPOSITIONS FOR MODULATING HEPSIN ACTIVATION OF UROKINASE-TYPE PLASMINOGEN ACTIVATOR” (Genentech, Inc., priority 2006, published 2013).

In assay [1] the test system is LnCaP-34 cells (hepsin-overexpressing). The experiment in a line: Pro-uPA activation by LnCaP-34 cells (two-stage enzymatic assay). It is filed as cell-based, human. The protocol:
(§1) Confluent LnCaP-34 and LnCaP-17 cells were washed with HBSA-Glucose buffer (20 mM Hepes pH 7.5, 150 mM NaCl, 5 mM CaCl2, 0.05 mg/ml BSA, 5 mM glucose) and 0.8 ml of 100 nM pro-uPA in pre-warmed HBSA-Glucose buffer was added to the cell layers. The inhibitors KD1 or HI-10331 were added to give final concentrations of 1 μM and 10 μM, respectively. The culture plates were kept at 37° C. and 50 μl samples were withdrawn at different time points, supplemented with 0.2 ml of […] S2444 in Hepes buffer and the increase in absorbance at 405 nm measured on a kinetic microplate reader. Cell numbers were determined at the end of the experiments. The concentration of formed uPA in each sample was calculated from a standard curve of enzymatically converted pro-uPA and normalized to 10^6 cells. After subtracting the background levels of uPA formed in the absence of cell layer, the linear rates of uPA formation/10^6 cells were determined.

Assay [2] has as its system LnCaP-17 cells. The experiment in a line: Pro-uPA activation by LnCaP-17 cells (two-stage enzymatic assay). The format is cell-based, human. The protocol: as §1
Assay [3] deals with LnCaP-34 cells (hepsin-overexpressing). The experiment in a line: Pro-uPA conversion by LnCaP-34 cells, immunoblotting. The format is cell-based, human. The settings on record: LnCaP-34, 30 nM pro-uPA, 1 h, 3 h, 5 h, 37° C. On the procedure:
For immunoblotting experiments, confluent LnCaP-34 cell layers were washed as above and incubated with 30 nM pro-uPA at 37° C. After 1 hr, 3 hr and 5 hr, aliquots were taken and immediately added to SDS sample buffer. The proteins were separated by SDS-PAGE and transferred onto nitrocellulose filters using the Bio-Rad Semi Dry Transfer system. Pro-uPA and uPA were visualized by using a rabbit polyclonal anti-uPA antibody (Cell Sciences; Canton, Mass.) followed by HRP-conjugated anti-rabbit antibody (Jackson ImmunoResearch Laboratory; West Grove, Pa.) and ECL (GE Healthcare; Piscataway, N.J.) enhancement.
On the technique in general: Immunoblotting shows a protein as a band on a membrane.

The target of assay [4] is T1, uPA (Homo sapiens, UniProt P00749).
T1 construct: two-chain form consisting of the 20 kDa A-chain and the 30 kDa B-chain (protease domain); purchased American Diagnostica (Greenwich, Conn.)
The experiment in a line: Chromogenic activity towards S2444 of samples withdrawn from LnCaP cell layers. It is filed as biochemical. The settings on record: data not shown. The protocol: as §1

Assay [5] deals with T1, uPA. The settings on record: reference 21; cited from earlier work.
In assay [6] the target is T2, pro-uPA (Homo sapiens, UniProt P00749).
T2 construct: time-dependent cleavage of the single-chain form into the two-chain form; purchased Cortex Biochem (San Leandro, Calif.)
Put plainly: First-order kinetics of pro-uPA activation by serine proteases. The format is biochemical. The settings on record: for Added pro-uPA converted during the experiment / First-order rate constant k ± SD: 30 nM pro-uPA, 3 nM enzyme; for First-order rate constant k ± SD: room temperature, 5 experiments; for Efficiency of pro-uPA activation compared to matriptase: kcat/Km ratio. The protocol:
The Km and kcat values for pro-uPA activation could not be accurately determined because the pro-uPA stock solution from the supplier (0.8 mg/ml) was not sufficiently high. Therefore, we chose to determine the first-order rate constant k as a measure of pro-uPA conversion efficiency. It was ensured that the pro-uPA concentration used (30 nM) was in the range of first-order kinetics for the enzymes tested, i.e. hepsin, plasmin and matriptase. The rate of uPA formation by these enzymes was linear up to 200 nM of pro-uPA. Pro-uPA (30 nM) was added to the enzymes (3 nM) in Hepes buffer to start the reaction at room temperature. At various time points, 50-μl aliquots were removed and added to 150 μl of 667 nM HAI-2 (final concentration in 250 μl was 400 nM) in Hepes buffer to stop further pro-uPA cleavage. […] Our results on HAI-2 inhibition of plasmin and HGFA (data not shown) were consistent with the published data (26,27). After addition of 50 μl of 2.5 mM S2444, the increase in absorbance at 405 nm was measured on a kinetic microplate reader. The concentration of uPA in each aliquot was calculated from a standard curve of enzymatically converted pro-uPA. The data were expressed as the decrease in the concentration of pro-uPA (log [pro-uPA]) as function of time. The first-order rate constant k was calculated from the slope using the equation
log [S]=−(k/2.3)t+log [S]0
where [S] is the concentration of pro-uPA and [S]0 is the initial pro-uPA concentration. The catalytic efficiency, kcat/Km, was then calculated using the known enzyme concentration [E] and the relationship k=(kcat/Km)[E]. The values are the average of 5 experiments±SD.

Assay [7] addresses T3, pro-tPA (Homo sapiens, UniProt P00750).
T3 construct: purchased Biodesign International (Saco, Me.)
The experiment in a line: Pro-tPA cleavage analysed by SDS-PAGE. The settings on record: 1.5 μM pro-tPA, 15 nM enzyme, 10 and 60 min. The format is biochemical. On the procedure:
Pro-uPA at a concentration of 1.5 μM was incubated with 15 nM hepsin or 15 nM plasmin in Hepes buffer at room temperature. […] The samples were analyzed by SDS-PAGE using a 4-20% gradient gel (Invitrogen; Carlsbad, Calif.). Protein was visualized after staining with SimplyBlue Safe Stain (Invitrogen). Experiments with pro-tPA (1.5 μM) were carried out identically, except that the buffer used was 50 mM sodium phosphate pH 7.5, 200 mM arginine, 0.01% Tween-20.

The target of assay [8] is T1, uPA. The experiment in a line: Enzymatic assay of uPA with chromogenic substrate S2444. It is filed as biochemical. The settings on record: 10 nM uPA, S2444 at Km; read-out: Ki* (apparent equilibrium dissociation constant) ± SD. The protocol: The reversible active site inhibitor HI-10331 (Genentech, Inc.) (having the molecule structure depicted in FIG. 10, and disclosed in U.S. Pat. No. 6,472,393) or HAI-2 were incubated with 0.5 nM hepsin, 0.5 nM matriptase and 10 nM uPA for 30 min in Hepes buffer (20 mM Hepes, pH 7.5, 150 mM NaCl, 5 mM CaCl2, 0.01% Triton X-100) at room temperature. The chromogenic substrates S2366 (for hepsin), S2765 (for matriptase) and S2444 (for uPA) were added at a concentration corresponding to their respective Km values, which were determined in separate experiments. After substrate addition, the linear rates of the increase in absorbance at 405 nm was measured on a kinetic microplate reader (Molecular Devices, Sunnyvale, Calif.).
The Ki values were calculated according to the relationship Ki=IC50/(1+[S]/Km) (23) using the experimentally determined IC50 and Km values for each enzyme-substrate pair. For HAI-2, the apparent Ki values (Ki^*) were determined by fitting the data to the equation for tight binding inhibition (24,25).

T3 sequence (P00750 36-562): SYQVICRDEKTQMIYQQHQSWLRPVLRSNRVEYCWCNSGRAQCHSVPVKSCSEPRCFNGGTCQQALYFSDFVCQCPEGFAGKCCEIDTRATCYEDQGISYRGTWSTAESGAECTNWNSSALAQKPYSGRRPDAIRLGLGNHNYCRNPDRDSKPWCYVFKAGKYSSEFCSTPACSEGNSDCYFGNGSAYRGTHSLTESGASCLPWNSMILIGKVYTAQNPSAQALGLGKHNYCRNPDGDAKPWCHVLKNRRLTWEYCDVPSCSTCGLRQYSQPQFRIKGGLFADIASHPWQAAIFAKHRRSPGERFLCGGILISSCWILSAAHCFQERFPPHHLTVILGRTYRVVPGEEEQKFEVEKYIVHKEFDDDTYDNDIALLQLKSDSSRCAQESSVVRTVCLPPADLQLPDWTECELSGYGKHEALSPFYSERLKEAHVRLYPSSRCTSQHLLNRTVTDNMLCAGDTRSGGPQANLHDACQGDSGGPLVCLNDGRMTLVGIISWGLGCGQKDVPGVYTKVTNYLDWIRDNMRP

Turning to “KD1: Kunitz domain-1 inhibitor derived from HAI-1B, produced in E. coli (TEDYCLASNKVGRCRGSFPRWYYDPTEQICKSFVYGGCLGNKNNYLREEECILACRGV)”, the “Inhibition of pro-uPA cleavage” value is reported as “almost completely inhibited” in assay [1] (LnCaP-34, 1 μM KD1) and “almost completely inhibited” in assay [2] (LnCaP-17, 1 μM KD1). In addition, the “Rate of pro-uPA activation per 10^6 cells ± SD” value is 0.2 ± 0.1 nM uPA hr^−1 in assay [1] (LnCaP-34, 1 μM KD1, 100 nM pro-uPA, 37° C.) and 0.2 ± 0.2 nM uPA hr^−1 in assay [2] (LnCaP-17, 1 μM KD1, 100 nM pro-uPA, 37° C.). Moreover, the “Inhibition of pro-uPA cleavage (immunoblot)” value in assay [3] is given as “strongly inhibited”. In assay [4], the “Inhibition of chromogenic activity of the withdrawn samples” value is on record as “not inhibited”. Besides, the “Inhibition of uPA” value in assay [5] is reported as “does not inhibit”.

With “Hepsin: soluble His-tagged extracellular domain of human hepsin (Arg45-Leu417), baculovirus expressed”, in assay [6], the “Added pro-uPA converted during the experiment” value is reported as “about 70%”, the “First-order rate constant k ± SD” value is recorded as 87.1 ± 11.3 10^−3 min^−1 and the “Efficiency of pro-uPA activation compared to matriptase” value is “about 6 fold”. Also, in assay [7], the “Cleavage of pro-tPA” value was “does not cleave”.

B1: HAI-2: recombinantly expressed soluble hepatocyte growth factor activator inhibitor-2, a bi-Kunitz inhibitor (protein)
chain: ADRERSIHDFCLVSKVVGRCRASMPRWWYNVTDGSCQLFVYGGCDGNSNNYLTKEECLKKCATVTENATGDLATSRNAADSSVPSAPRRQDSEDHSSDMFNYEEYCTANAVTGPCRASFPRWYFDVERNSCNNFIYGGCRGNKNSYRSEEACMLRCFRQQENPPLPLGSK
B1: in assay [8], the Ki is more than 1000 nM.

B2: Plasmin: Lys-plasmin from Heamatologic Technologies Inc., known pro-uPA activator (protein)
chain: KVYLSECKTGNGKNYRGTMSKTKNGITCQKWSSTSPHRPRFSPATHPSEGLEENYCRNPDNDPQGPWCYTTDPEKRYDYCDILECEEECMHCSGENYDGKISKTMSGLECQAWDSQSPHAHGYIPSKFPNKNLKKNYCRNPDRELRPWCFTTDPNKRWELCDIPRCTTPPPSSGPTYQCLKGTGENYRGNVAVTVSGHTCQHWSAQTPHTHNRTPENFPCKNLDENYCRNPDGKRAPWCHTTNSQVRWEYCKIPSCDSSPVSTEQLAPTAPPELTPVVQDCYHGDGQSYRGTSSTTTTGKKCQSWSSMTPHRHQKTPENYPNAGLTMNYCRNPDADKGPWCFTTDPSVRWEYCNLKKCSGTEASVVAPPPVVLLPDVETPSEEDCMFGNGKGYRGKRATTVTGTPCQDWAAQEPHRHSIFTPETNPRAGLEKNYCRNPDGDVGGPWCYTTNPRKLYDYCDVPQCAAPSFDCGKPQVEPKKCPGRVVGGCVAHPHSWPWQVSLRTRFGMHFCGGTLISPEWVLTAAHCLEKSPRPSSYKVILGAHQEVNLEPHVQEIEVSRLFLEPTRKDIALLKLSSPAVITDKVIPACLPSPNYVVADRTECFITGWGETQGTFGAGLLKEAQLPVIENKVCNRYEFLNGRVQSTELCAGHLAGGTDSCQGDSGGPLVCFEKDKYILQGVTSWGLGCARPNKPGVYVRVSRFVTWIEGVMRNN
On to B2, for which, in assay [6], the “Added pro-uPA converted during the experiment” value is “about 70%”, the “First-order rate constant k ± SD” value is 81.5 ± 14.2 10^−3 min^−1 and the “Efficiency of pro-uPA activation compared to matriptase” value was “about 6 fold”.

B3: Matriptase: matriptase protease domain expressed in E. coli (protein)
chain: VVGGTDADEGEWPWQVSLHALGQGHICGASLISPNWLVSAAHCYIDDRGFRYSDPTQWTAFLGLHDQSQRSAPGVQERRLKRIISHPFFNDFTFDYDIALLELEKPAEYSSMVRPICLPDASHVFPAGKAIWVTGWGHTQYGGTGALILQKGEIRVINQTTCENLLPQQITPRMMCVGFLSGGVDSCQGDSGGPLSSVEADGRIFQAGVVSWGDGCAQRNKPGVYTRLPLFRDWIKENTGV
On to B3, for which the “First-order rate constant k ± SD” value in assay [6] is 14.2 ± 4.9 10^−3 min^−1.
